This is an account of results in CN114835814A.

The target in the assay is 人源PGII蛋白 (human pepsinogen II from human gastric mucosa, Lee Biosolutions, cat. 440-50) (human) (UniProt P20142). Kind of assay: indirect ELISA, human-derived PGII coated 2 μg/mL, culture supernatant diluted 50-fold. On the technique in general: An ELISA detects its analyte on a solid surface through an enzyme-linked reagent.
UniProt P20142, sequence (P20142 17-388): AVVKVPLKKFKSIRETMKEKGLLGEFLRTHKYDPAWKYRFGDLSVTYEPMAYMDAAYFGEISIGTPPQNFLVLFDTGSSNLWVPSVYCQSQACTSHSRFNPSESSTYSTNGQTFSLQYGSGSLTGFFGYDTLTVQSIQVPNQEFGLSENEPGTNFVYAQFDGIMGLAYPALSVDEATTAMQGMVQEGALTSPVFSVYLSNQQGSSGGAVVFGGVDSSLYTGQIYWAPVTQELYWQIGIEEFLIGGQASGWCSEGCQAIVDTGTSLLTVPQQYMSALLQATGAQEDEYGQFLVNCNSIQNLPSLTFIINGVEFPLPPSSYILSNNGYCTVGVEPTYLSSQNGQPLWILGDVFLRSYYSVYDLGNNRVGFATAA

B1: 鼠单克隆抗体3G10 (antibody, part only; not given: Light chain variable domain, V domains shown, part only)
VH: EVQLQQSGAELVKPGASVKLSCTASGFNIKDSYIHWVTQRPDQGLEWIGMIDPTNDNIRYDPKFQGRATITADTSSNTAYLQLSSLTSEDTAVYFCARDGTSLDYWGQGTSLTVSS
The molecule B1 returned an OD450 of 1.72 OD450.

B2: 鼠单克隆抗体1A7 (antibody, V domains shown)
VH: EVKLEESGGGLVQPGGSMKLSCVASGFAFSNYWMNWVRQSPEKGLEWVAEIRLKSNNYATHYAESVKGRFTISRDDSKSSVDLQMNNLRAEDTGTYYCNPFFYDYGYWGQGTTLTVSS
VL: QIVLTQSPAILSASPGEKVTISCSASSSVSYMYWYQQKPGSSPKPWIYRTSNLASGVPARFSGSGSGTSYSLTISSMEAEDAATYYCQQYHSYPRTFGGGTKLEIK
Consider B2, for which the OD450 turned out to be 1.7 OD450.
